Assay results reported in article PMC5658516 (Cell Chemical Biology, 2017).

Molecular target: T1, His10-Ub-Ub WT (UniProt P0CG48 1-76; P0CG48 1-76)
T1 construct: ubiquitin, distal moiety; ubiquitin, proximal moiety; two ubiquitins head to tail on one chain; also called linear diUb; M1-linked diUb; source: E. coli BL21-CodonPlus (DE3)-RIPL, purified (HisTrap, desalting); not shown: His10, N-terminal, kept
Assay: pull-down; 20 μg OTULINcat-ST with equimolar His10-diUb in PBS, 0.1% BSA, 5% glycerol, 0.1% Triton-X, 2 h 4 °C; OTULINcat-ST held on Strep-Tactin Sepharose, eight washes with 0.5% Triton-X; western blot
Settings: both partners purified

B1: OTULINcat-Strep-tag II C129A (domain or fragment, UniProt Q96BN8 80-352, looked up)
chain: LSVAPEMDIMDYCKKEWRGNTQKATCMKMGYEEVSQKFTSIRRVRGDNYAALRATLFQAMSQAVGLPPWLQDPELMLLPEKLISKYNWIKQWKLGLKFDGKNEDLVDKIKESLTLLRKKWAGLAEMRTAEARQIACDELFTNEAEEYSLYEAVKFLMLNRAIELYNDKEKGKEVPFFSVLLFARDTSNDPGQLLRNHLNQVGHTGGLEQVEMFLLAYAVRHTIQVYRLSKYNTEEFITVYPTDPPKDWPVVTLIAEDDRHYNIPVRVCEETSL
notes: also called OTULINcat C129A; OTULIN C129A; source: E. coli BL21-CodonPlus (DE3)-RIPL, purified (StrepTrap, desalting); not shown: Strep-tag II, C-terminal, kept
  binding result: binds
